The RNAGym collection of RNA variant scans (doi:10.1021/acssynbio.7b00057)

B1: Pistol ribozyme (parent)
chain: GGGUCGUUGUUCCAUAAUCGCGUGGAUAUGGCACGCAAGUUUCUACCGGGCACCGUAAAUGUCCGACUGGAGCCGUUCGGGCGGCUAUAAACAGACCUCAGGCCCGAAGCGUGGCGGCACCUGCCGCCGGUGGUAAAAAAGAUCGGAAGAGCACACGUCU

Variants of: B1
Test: aptazyme ON/OFF ratio, guanine; higher = stronger switching; co-transcriptional cleavage with and without guanine

Variant | aptazyme ON/OFF ratio
U7A U8A G9C U10A C12U C13A | 1.09
U7A U8A G9C U10A C12U C13U | 1.04
U7A U8A G9U C13U | 1.21
U7A U8A G9U C13A | 1.16
U7A U8A G9U C13G | 1.05
U7A U8A G9C U10A U11A C12G C13G | 1.23
U7A U8A G9C U10A U11A C12G C13A | 1.18
U7A U8A G9C U10A U11A C12G C13U | 1.19
U7A U8A G9C U11G C13U | 1.31
U7A U8A G9C U11G C13G | 1.1
U7A U8A G9C U11G C13A | 1.22
U7A U8A G9C U10G C13G | 1.29
U7A U8A G9C U10G C13U | 1.56
U7A U8A G9C U10G C13A | 1.24
U7A U8A G9C U10A U11C C12U | 1.05
U7A U8A G9C U10A U11C C12G | 1.16
U7A U8A G9C U10A U11C C12A | 1.13
U7A U8A G9C C12U C13A | 1.15
U7A U8A G9C C12U C13G | 1.23
U7A U8A G9C C12U C13U | 1.42
U7A U8A G9C U11A C12A C13A | 1.08
U7A U8A G9C U11A C12A C13U | 1.15
U7A U8A G9C U11A C12A C13G | 1.18
U7A U8A G9C U10A U11A C13U | 1.27

Variant | aptazyme ON/OFF ratio
U7A U8A G9C U10A U11A C13A | 1.23
U7A U8A G9C U10A U11A C13G | 1.09
U7A U8A G9U U10A U11A C12A C13G | 1.2
U7A U8A G9U U10A U11A C12A C13U | 1.18
U7A U8A G9U U10A U11A C12A C13A | 1.35
U7A U8A G9A U11A C12U C13U | 1.22
U7A U8A G9A U11A C12U C13A | 1.07
U7A U8A G9A U11A C12U C13G | 1.23
U7A U8A G9A U11A C12G C13U | 1.25
U7A U8A G9A U11A C12G C13G | 1.28
U7A U8A G9C U10A C12U | 1.15
U7A U8A G9C U10A C12G | 1.25
U7A U8A G9C U10A C12A | 1.2
U7A U8A G9C U11C C12G C13U | 1.07
U7A U8A G9C U11C C12G C13A | 1.06
U7A U8A G9C U11C C12G C13G | 1.07
U7A U8A G9A U11C | 1.03
U7A U8A G9A U11G | 1.29
U7A U8A G9C U10A U11C C13A | 1.07
U7A U8A G9C U10A U11C C13U | 1.04
U7A U8A G9C U10A U11C C13G | 1.05
U7A U8A G9U U10A U11A C12A | 1.22
U7A U8A G9A U11C C12A C13U | 1.22
U7A U8A G9A U11C C12A C13G | 1.14

Variant | aptazyme ON/OFF ratio
U7A U8A G9A U11C C12A C13A | 1.17
U7A U8A G9C U11G C12A | 1.1
U7A U8A G9C U11G C12U | 1.71
U7A U8A G9C U11G C12G | 1.4
U7A U8A G9C U10G C12U C13A | 1.22
U7A U8A G9C U10G C12U C13U | 1.32
U7A U8A G9C U10G C12U C13G | 1.19
U7A U8A G9U C12G C13U | 1.47
U7A U8A G9U C12G C13A | 1.19
U7A U8A G9U C12G C13G | 1.27
U7A U8A G9C U10G C12A C13U | 1.27
U7A U8A G9C U10G C12A C13A | 1.18
U7A U8A G9C U10G C12A C13G | 1.09
U7A U8A G9C U10C U11A C12U C13A | 1.03
U7A U8A G9C U10C U11A C12U C13G | 1.1
U7A U8A G9C U10C U11A C12U C13U | 1.09
U7A U8A G9C U10A C12A C13A | 1.11
U7A U8A G9C U10A C12A C13G | 1.16
U7A U8A G9C U10A C12A C13U | 1.18
U7A U8A G9U U10A U11A | 1.44
U7A U8A G9C U11G C12G C13G | 1.32
U7A U8A G9C U11G C12G C13U | 1.16
U7A U8A G9C U11G C12G C13A | 1.31
U7A U8A G9C U11C C12A C13A | 1.08

Variant | aptazyme ON/OFF ratio
U7A U8A G9C U11C C12A C13U | 1.05
U7A U8A G9C U11C C12A C13G | 1.07
U7A U8A G9C U10G U11G C12G | 1.56
U7A U8A G9C U10G U11G C12U | 1.39
U7A U8A G9C U10G U11G C12A | 1.76
U7A U8A G9C U10A U11G C12G C13U | 1.14
U7A U8A G9C U10A U11G C12G C13G | 1.25
U7A U8A G9C U10A U11G C12G C13A | 1.18
U7A U8A G9U U10A C12G C13A | 1.2
U7A U8A G9U U10A C12G C13G | 1.18
U7A U8A G9U U10A C12G C13U | 1.3
U7A U8A G9U U10A | 1.25
U7A U8A G9C U11G C12A C13U | 1.23
U7A U8A G9C U11G C12A C13G | 1.22
U7A U8A G9C U11G C12A C13A | 1.17
U7A U8A G9C U10A U11A C12A C13U | 1.14
U7A U8A G9C U10A U11A C12A C13G | 1.07
U7A U8A G9C U10A U11A C12A C13A | 1.37
U7A U8A G9C U10A C13G | 1.07
U7A U8A G9C U10A C13U | 1.18
U7A U8A G9C U10A C13A | 1.21
U7A U8A G9U U10A C13G | 1.08
U7A U8A G9U U10A C13U | 1.24
U7A U8A G9U U10A C13A | 1.43

Variant | aptazyme ON/OFF ratio
U7A U8A G9C U10C U11G C12G C13U | 1.08
U7A U8A G9C U10C U11G C12G C13G | 1.08
U7A U8A G9C U10C U11G C12G C13A | 1.1
U7A U8A G9C U10G U11G C13U | 1.48
U7A U8A G9C U10G U11G C13A | 1.28
U7A U8A G9C U10G U11G C13G | 1.18
U7A U8A G9C U10G U11C C12U | 1.13
U7A U8A G9C U10G U11C C12A | 1.81
U7A U8A G9C U10G U11C C12G | 1.27
U7A U8A G9C U10G U11C C12G C13G | 1.39
U7A U8A G9C U10G U11C C12G C13U | 1.22
U7A U8A G9C U10G U11C C12G C13A | 1.36
U7A U8A G9C U10G C12U | 1.41
U7A U8A G9C U10G C12G | 1.33
U7A U8A G9C U10G C12A | 1.1
U7A U8A G9C U10G U11A C12A C13A | 1.17
U7A U8A G9C U10G U11A C12A C13G | 1.12
U7A U8A G9C U10G U11A C12A C13U | 1.2
U7A U8A G9C U10C C12A C13G | 1.04
U7A U8A G9C U10C C12A C13A | 1.04
U7A U8A G9C U10C C12A C13U | 1.04
U7A U8A G9U | 2.12
U7A U8A G9C | 1.22
U7A U8A G9C U10G U11G C12U C13G | 1.15

Variant | aptazyme ON/OFF ratio
U7A U8A G9C U10G U11G C12U C13A | 1.17
U7A U8A G9C U10G U11G C12U C13U | 1.18
U7A U8A G9C U11C | 1.05
U7A U8A G9C U11A | 1.25
U7A U8A G9C U11G | 1.47
U7A U8A G9C U11C C12U | 1.09
U7A U8A G9C U11C C12G | 1.1
U7A U8A G9C U11C C12A | 1.07
U7A U8A G9A U11C C12U C13A | 1.24
U7A U8A G9A U11C C12U C13U | 1.08
U7A U8A G9A U11C C12U C13G | 1.21
U7A U8A G9C U11C C13U | 1.07
U7A U8A G9C U11C C13G | 1.07
U7A U8A G9C U11C C13A | 1.08
U7A U8A G9C U10G U11A C12G | 1.32
U7A U8A G9C U10G U11A C12A | 1.29
U7A U8A G9C U10G U11A C12U | 1.03
U7A U8A G9C U10C U11G C12A | 1.07
U7A U8A G9C U10C U11G C12U | 1.08
U7A U8A G9C U10C U11G C12G | 1.09
U7A U8A G9C U11A C12G C13G | 1.2
U7A U8A G9C U11A C12G C13U | 1.21
U7A U8A G9C U11A C12G C13A | 1.15
U7A U8A G9C U10A U11A C12U C13A | 1.2

Variant | aptazyme ON/OFF ratio
U7A U8A G9C U10A U11A C12U C13G | 1.18
U7A U8A G9C U10A U11A C12U C13U | 1.13
U7A U8A G9U U10A C12A C13U | 1.15
U7A U8A G9U U10A C12A C13A | 1.34
U7A U8A G9U U10A C12A C13G | 1.24
U7A U8A G9C U10A U11C C12G C13G | 1.14
U7A U8A G9C U10A U11C C12G C13U | 1.27
U7A U8A G9C U10A U11C C12G C13A | 1.18
U7A U8A G9C U10G | 2.69
U7A U8A G9C U10C | 1.8
U7A U8A G9C U10A | 1.27
U7A U8A G9C U11G C12U C13G | 1.23
U7A U8A G9C U11G C12U C13U | 1.09
U7A U8A G9C U11G C12U C13A | 1.37
U7A U8A G9A U11C C12U | 1.06
U7A U8A G9A U11C C12G | 1.1
U7A U8A G9A U11C C12A | 1.16
U7A U8A G9C U10A U11G C12U C13A | 1.17
U7A U8A G9C U10A U11G C12U C13U | 1.14
U7A U8A G9C U10A U11G C12U C13G | 1.11
U7A U8A G9C U10G U11G C12G C13A | 1.2
U7A U8A G9C U10G U11G C12G C13G | 1.13
U7A U8A G9C U10G U11G C12G C13U | 1.21
